Columns and labels:
[1] = molecular target: factor X (FX) (UniProt P00742)
[2] = molecular target: activated factor VIII (FVIIIa): Recombinate Antihemophilic Factor activated with thrombin (UniProt P00451)
Chain of UniProt P00451 (P00451 other isoform, or with tags, fused parts or gaps): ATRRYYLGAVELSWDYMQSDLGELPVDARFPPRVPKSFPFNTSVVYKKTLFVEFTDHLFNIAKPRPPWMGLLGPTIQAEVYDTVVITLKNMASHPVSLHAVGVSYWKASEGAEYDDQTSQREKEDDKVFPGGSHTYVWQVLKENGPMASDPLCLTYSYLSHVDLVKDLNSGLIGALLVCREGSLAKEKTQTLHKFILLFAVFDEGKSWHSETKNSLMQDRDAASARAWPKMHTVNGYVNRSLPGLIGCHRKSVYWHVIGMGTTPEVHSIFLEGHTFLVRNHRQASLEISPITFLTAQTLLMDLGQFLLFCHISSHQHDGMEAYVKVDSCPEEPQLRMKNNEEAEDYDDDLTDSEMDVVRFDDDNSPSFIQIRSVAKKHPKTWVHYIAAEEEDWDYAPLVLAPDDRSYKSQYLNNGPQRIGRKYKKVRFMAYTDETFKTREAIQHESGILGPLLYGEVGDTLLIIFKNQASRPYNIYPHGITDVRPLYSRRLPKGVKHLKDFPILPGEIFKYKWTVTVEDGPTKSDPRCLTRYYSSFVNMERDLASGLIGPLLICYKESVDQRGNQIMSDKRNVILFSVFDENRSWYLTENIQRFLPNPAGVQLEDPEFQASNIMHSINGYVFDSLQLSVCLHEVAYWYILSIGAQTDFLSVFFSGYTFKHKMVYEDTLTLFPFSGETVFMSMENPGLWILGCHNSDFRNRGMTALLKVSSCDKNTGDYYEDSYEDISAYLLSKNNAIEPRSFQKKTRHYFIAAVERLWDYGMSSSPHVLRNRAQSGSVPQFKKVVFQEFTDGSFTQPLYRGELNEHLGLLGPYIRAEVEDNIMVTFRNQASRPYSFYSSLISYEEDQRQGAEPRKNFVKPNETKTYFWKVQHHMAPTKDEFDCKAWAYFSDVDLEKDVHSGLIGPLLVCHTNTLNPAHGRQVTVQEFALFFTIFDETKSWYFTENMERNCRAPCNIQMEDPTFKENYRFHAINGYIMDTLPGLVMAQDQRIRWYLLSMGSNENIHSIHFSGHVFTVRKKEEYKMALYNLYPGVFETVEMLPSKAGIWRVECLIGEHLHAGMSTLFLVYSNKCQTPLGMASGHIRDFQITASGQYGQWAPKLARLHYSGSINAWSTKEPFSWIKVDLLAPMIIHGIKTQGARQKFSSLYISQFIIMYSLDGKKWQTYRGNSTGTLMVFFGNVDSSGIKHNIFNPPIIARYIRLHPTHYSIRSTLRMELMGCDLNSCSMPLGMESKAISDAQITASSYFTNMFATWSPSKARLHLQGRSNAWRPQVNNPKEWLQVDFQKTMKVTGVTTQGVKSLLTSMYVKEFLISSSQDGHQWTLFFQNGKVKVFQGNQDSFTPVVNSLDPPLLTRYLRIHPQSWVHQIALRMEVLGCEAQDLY

Chain of plasma derived FIX (pdFIX), activated form pdFIXa (chain): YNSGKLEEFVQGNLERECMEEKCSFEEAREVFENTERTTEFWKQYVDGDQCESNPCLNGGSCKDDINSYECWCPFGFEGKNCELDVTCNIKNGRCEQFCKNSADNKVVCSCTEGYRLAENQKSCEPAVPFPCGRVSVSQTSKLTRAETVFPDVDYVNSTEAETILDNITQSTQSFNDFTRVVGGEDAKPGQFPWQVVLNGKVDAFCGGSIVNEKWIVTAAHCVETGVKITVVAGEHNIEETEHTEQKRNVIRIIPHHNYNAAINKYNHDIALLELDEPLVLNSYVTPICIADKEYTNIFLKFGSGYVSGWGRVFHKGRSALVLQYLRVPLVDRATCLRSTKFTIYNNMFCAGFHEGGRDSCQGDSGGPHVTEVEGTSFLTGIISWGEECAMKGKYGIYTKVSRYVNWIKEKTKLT
Chain of UniProt P00742 (P00742 41-488): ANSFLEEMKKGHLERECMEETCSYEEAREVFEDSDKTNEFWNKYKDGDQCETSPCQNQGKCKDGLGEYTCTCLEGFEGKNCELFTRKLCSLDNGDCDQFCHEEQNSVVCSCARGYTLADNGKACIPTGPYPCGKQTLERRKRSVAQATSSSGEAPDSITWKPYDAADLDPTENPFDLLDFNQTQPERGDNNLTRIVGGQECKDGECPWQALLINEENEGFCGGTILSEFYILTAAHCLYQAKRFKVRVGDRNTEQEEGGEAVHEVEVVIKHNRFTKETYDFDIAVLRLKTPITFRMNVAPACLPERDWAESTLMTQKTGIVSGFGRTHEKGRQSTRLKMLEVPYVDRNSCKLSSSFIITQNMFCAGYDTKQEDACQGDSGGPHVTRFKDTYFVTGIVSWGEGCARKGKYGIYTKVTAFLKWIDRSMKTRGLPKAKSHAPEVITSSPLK
Chain of FIX wild type (recombinant, full length, HEK 293), activated form (chain): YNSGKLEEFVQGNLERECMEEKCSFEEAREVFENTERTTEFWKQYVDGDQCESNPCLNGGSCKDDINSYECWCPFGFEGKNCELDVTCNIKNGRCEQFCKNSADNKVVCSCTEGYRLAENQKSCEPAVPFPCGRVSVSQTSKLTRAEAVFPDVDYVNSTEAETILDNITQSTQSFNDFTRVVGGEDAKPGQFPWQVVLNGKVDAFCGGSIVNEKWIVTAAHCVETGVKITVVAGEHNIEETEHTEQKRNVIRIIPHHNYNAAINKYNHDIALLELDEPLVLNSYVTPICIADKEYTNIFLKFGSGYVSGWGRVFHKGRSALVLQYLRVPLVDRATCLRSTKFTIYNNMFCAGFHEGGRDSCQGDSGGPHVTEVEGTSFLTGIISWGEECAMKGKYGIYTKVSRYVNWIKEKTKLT

## FIX wild type (recombinant, full length, HEK 293), activated form
[1]
  KM (nM), FX activation with FVIIIa: 11 nM
  KM (nM), FX activation without FVIIIa: 68 nM
  kcat (10^-3 min^-1), FX activation without FVIIIa: 0.000283 s⁻¹
  kcat (min^-1), FX activation with FVIIIa: 102 min⁻¹
  kcat/KM (10^-6 nM^-1 min^-1), FX activation without FVIIIa: 4200 M⁻¹ s⁻¹
  kcat/KM (nM^-1 min^-1), FX activation with FVIIIa: 1.5e+08 M⁻¹ s⁻¹
  rate of FX activation against pdFIXa: FIX-WT and FIX-Y94F/K98T/Y177F activated FX at the same rate as pdFIXa
[2]
  ratio kcat/KM +/- FVIIIa (FX activation): 36,695

## plasma derived FIX (pdFIX), activated form pdFIXa
[1]
  KM (nM), FX activation with FVIIIa: 13 nM
  KM (nM), FX activation without FVIIIa: 65 nM
  kcat (10^-3 min^-1), FX activation without FVIIIa: 0.000217 s⁻¹
  kcat (min^-1), FX activation with FVIIIa: 131 min⁻¹
  kcat/KM (10^-6 nM^-1 min^-1), FX activation without FVIIIa: 3250 M⁻¹ s⁻¹
  kcat/KM (nM^-1 min^-1), FX activation with FVIIIa: 1.67e+08 M⁻¹ s⁻¹
[2]
  ratio kcat/KM +/- FVIIIa (FX activation): 52,430

Reference: patent US20080214461
